For the experiment, the target named is T1, WASp 289-304 signature peptide (human).
T1 construct: Endogenous tryptic peptide released from human dried blood spot digests
T1 peptide: LIYDFIEDQGGLEAVR
The experiment in a line: immuno-SRM: peptide enrichment from normal control DBS digests, quantified by LC-SRM-MS.

B1: Anti-WASp 289 monoclonal antibody (antibody, V domains shown)
VH: QSVEESGGRLVTPGTPLTLTCTVSGFSLSSSDMTWVRQAPGKGLEYIGYMSSNDRPYYASWANGRFTISKTSTTVTLKITSPTTEDTATYFCCRGVLGTRSIHIWGPGTLVTVSL
VL: IVMTQTPSPVSAAVGGTVTINCQASESVYSDNRLSWYQQKPGQPPKQLIYGASTLASEVSSRFKGSGSGTQFTLTINDVVCDDAATYYCAGYKSSNQDGIGFGGGTEVVVKG
modifications: In the assay the antibody was chemically cross-linked (DMP) to Protein G magnetic beads; the letters do not carry this.
notes: Rabbit monoclonal antibody raised against the KLH-conjugated peptide; The printed light chain holds an X near its C-terminus; In the assay the antibody was cross-linked to Protein G magnetic beads
As to B1, the binding result is given as “binds”.

The values are drawn from US20230194545A1 (SEATTLE CHILDREN S HOSPITAL D B A SEATTLE CHILDREN S …, published 2023).
